The domain aggregation screens of Martell et al. (2025)

Test: soluble fraction after stress (log2 fold change); higher = more stays soluble; pooled small domains, quantitative proteomics
Conditions: stress: pH 4
How it was run: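 How much of each domain stays soluble after acid stress, expressed as a fold change, is used to gauge aggregation propensity. Pooled custom libraries of small domains underwent pH 4 stress before high-throughput quantitative proteomics. A higher log2 value means more of the domain stayed soluble.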

Sequence | soluble fraction (log2)
HMKWYDSDKGFGFLSQEEGEDVYVRSSALPAGVEGLKAGQRVEFGIASGRRGPQALSL | -0.71
HMKYKKYKLLKDLPTFKAGQLAYISKTGNLIAGTPENQKTTETGLIIMIYHETTLKKFPNILTEWFEEIE | -1.17
HMKYNGDRPVFNDDVAWAKWMLENPAKITSHDKENLSSMLKKPEVVMLFEAEDLSVPDLRTLAKE | -0.349
HMKYNYEAQQSDELSLVKGSRIHVLEKSSDGWWKGEIDNVVGWFPS | -0.102
HMKYRLLGENLQTIRKARGMKQQELADQIGINMQSLSKIERGLNYPTFETLEKIMNALGITPNELLSG | -0.798
HMKYRPGDVVTLRVARMGEMGAFLDAGTGNTNDDILLHKMQQTEEIKAGQDVKVYLYLDPNRRLTASMKL | -0.0269
HMKYSNDEVERDLYVRGVIYQIGDLVENKLDGTSGEVVRRGPNYVQYTDGENFYKAFLSALQEQK | -1.04
HMKYSYAELTKLQEQIAQDRNAPLTVPNALGIGLDERNNVIEITVNIADEAAAKAYYLQKYGDRISLKTTD | -0.243
HMKYTEEIFNILSRGGFISANSVSSTVKRYYDALEEDFTEYYDYYKGIGFYLEAGNGYYLFTR | -0.064
HMKYTVKSPLPGVIMSVLVKVGDTVKASDTVISLEAMKMENAIHAGRDGKVTSIDVNVGDSVLEGHTLVTI | -1.04
HMLAAGTPLTVVTESSNLNIRQEPSTEAAVVGKAAKGEIVTLVEQTSGEWWKVSTKDGEEGYAYSRYL | -0.809
HMLAAGTSLTVDTESSNLNIRQEPSTEGVILGKAAKGEVVTLVEQSSDEWWKIKTKDGEEGYAYARYLR | 0.0235
HMLADRANMAPAALRQIMTAIDGGNVTPKQIESATGMAHATVARALRKMLDDGLIANDGKGRYTVLT | 0.238
HMLADTNIHTIALKHRLANEVVEQVRPFLPETATIRAYDNMLILKSDRATLANVEQLIKKLDT | 0.228
HMLALVREQIERNVSNPTDEDIRKIRHDVMEVITRAGADAATVDIAIEIDSQKNILRAIATGATEL | -1
HMLAMHVVESVGGAEQFTKLQNFAKTQNADYQKMWNDTMNSGNVLAIKTMLSGIQSDMIAVQ | -0.466
HMLAQDVIVKQDGGTILSKVLEIGTQEIAYKKWNSQDGPVYKIAKDQVLSVNYQNGEVDRFA | -0.233
HMLAQISDEGAIGAVVARVLDAHPNEVARYHAGEEKVAKFLMGAAMRELRGKGDPAVVQRLLSEGLDARRV | 0.294
HMLARPTANELVKEMQRRAKEQRTELPPDAARDLLERSGQDQFLLGNEVDKLAALSGYTTITREMVAQAGT | 0.0328
HMLAVPADFAEKLQSLRSQLASDDLDASDAFGRLQPFIKALYPAQLEALRKAVDDFDFVEATRLIDQLPQ | -0.954
HMLAYQRTYEKILEDLRNDVYPVNSLLPPEPKLEEIYHVSRTTVRRAIAQLADEGYVKVKQGYGTVVLKN | 0.22
HMLDEPPVSQTLTTYDREHMALYLRLLDSARDGADWREAVQILFGLDPTRDPLRSRHVHDTHLARARWM | -0.452
HMLDFGQEDSEAVSEIILVLGRYWMDFSHKKYPEAEGSALRHKGISHIFTVLKPYLTSATAQLIEQRLQQ | -0.398

Sequence | soluble fraction (log2)
HMLDIQKKGENIAYIEGAGDVIPESLKQIGYHVVTIAPKDINAETLSRFDAVVVGIRAYNTVEDL | -0.241
HMLDKIRTYIDNSFTGVNETKKVKELKDELFENLKEKYNDQIQDGKTEQEAYNSVISGIGDLSELIESVK | -0.0804
HMLDKKKHLEQGRKIIEDQLAKYKIQPSFDTLKKLSAYYGLNNKEQLYAQVGMGFLELENLDEILQ | -0.347
HMLDLPVRTINGRQYYYYEVRNRETVYGLSKRLGVTREEIVRYNPSMADGLKRGAILYFPVDEFSDRI | -0.0139
HMLDLSDFEVVRDLYLSEQIWNVGDLIIARSKKDDTYKAWEIIRKGTNYVTGIDESHKVEKIWLHDILI | -1.1
HMLDSPHDDLNRKIVQMLQNDGRLPYKDIAEVLSVSEGTVRNRVQRMRDAGMLNIVALIDPMAI | -0.498
HMLDTPLTARELDVLYLMRQRMSAKEIAKQLGIATMTVNRHAANLYRKLGVNTRWDAVYRAEEVGILPP | -0.592
HMLDVNLIFSRPGFSLSAAFTLHAGGITVLRGDSGSGKTTLADLLSGAIAPQKGRILSDGDIWFDAASGIN | -0.163
HMLDYITLSPQELGKLLSAGNGDAAMVYLYMKATGDVTLKQAETQLGMTNQNLAWAESLLKRLGLMD | -0.501
HMLDYKSALQELLQAQRRSRPRYEVISTEGPDHERVFEVAVWLDNEELGRGKGRSKREAEHQAAQAALTQL | -0.626
HMLDYQLQVFKDTLEANRKHRGQKIVFIHGKGEGVLRRALIHALNYQYKKFTYQDASFREYGYGATQVTI | -0.0148
HMLEEIDYPEEQLQLLFAWSRDHVQSTPPGLPVVDDHVWHILVRGYGATDQRTEAFALLASYAGFP | -0.722
HMLEIDPPVDEISVSRKAFYEAAGYKVNPYTHIPPRYRKEFEEHSFVVMSWPRELPEETYRKFDRYLRDV | -0.253
HMLEIRGFTVLLSDRGIVGIIEEIIQNPGQDLLRILSPEKREILVPLHSDLITGINKKKKTITMNLPDGL | -0.775
HMLELTGEEEFVIRTLTRQGDLHINALVVETDIPINRMISLLFELEMKGVVKALVGGVYHLLG | -1.58
HMLELTVSDKMARLMAWRNRRRVNLSDQELHRIAAAPKQSPESILKMLPGFLQDSVPEIWAELTGGRP | -0.0678
HMLENSLDHIEGIGPKTKDTLLTYFKSVSKIKSANPSILAELIGAAKTKILLAAFEKEKTTS | 0.17
HMLENYEGFKQKILKLTGIDLSSYKERQMRRRIDSLIHRNNYDDYDEYFKALTQNSNLYDEFINYLTI | -0.424
HMLEQEDMYGYQMIETLRERSEHSFDLKAGTLYPLLHALEQKGLITARDEASAAGRPRRYYHLTDAG | -1.05
HMLERPLFTPEQYGRFRGKEARIRLSNPVEGRKTLTGSIVEATEERIVVFVEEEEREVTVPFQWIKSGNL | -0.523
HMLESVMHSRIAEIISREGTAPAHMSMQEKIRVVHKLDADGILMMKGAVAEIADQLSVSVPTIYRYLNKPQ | ≥ 0.43
HMLETILQIGKDGVGENLVKQVNDALEARELIKGRVLDNNLELDARTAAQILAKATRSEVVQVIGTKFV | 0.0332
HMLEVTQTDVKMYTTSGTPVYAAPDLNSAIVVYLERFVNVTVTGITDNGFYRVNLNGDYYIPGPYLISSV | -0.759

Sequence | soluble fraction (log2)
HMLEYIEPRTAVQIHGIKAKPELNGKRGMVMGYAPERMRYRVRIDVGEGTGGKESEEVYLKPENVIAVK | 0.101
HMLFKGDTREENVILEFLSKNGTTSSDAIIKQTGLSASEFNQAITMLELKGLALNNGGEKWSL | -0.0366
HMLGDAVLRQVLETIPEDPAVDYLELRRNTGMTEADLDRVLADLENLGVINKKRTVEQVLYWRT | -1.44
HMLGDAWSMLILRDAHSGFSRFDQFRKSLGIAPTMLTKRLSVLVDEGLLEKRQYSEHPPREEYVLTQAGQD | 0.149
HMLGERIRTLRKEIGMSVTELARRVKTSPSHISEIERGEKMPSLNLLVKIAKELKTSIDYLTGLVG | -0.487
HMLGNIERALEMLQEVAATMDPVDIRLLLSMAQVESVRGNTEAAVKLIDEALVIDPGNERIEQIRLRVL | -0.869
HMLGRPDMSPIPEGSRNNDLHAWGFGRLANHPDNKRQIEADFFERGRISGLGDAEIRASWNSILRQLGHQ | 0.276
HMLGSVRTIRQVLDDGRLIVADGGGNPSVIRRSGALAHETFANGQRVIVDPSGRLALELLPD | 0.315
HMLGVLEYYNNGQKKSERTFKGGMQIYTEWYENGQMKAEERKWIDQLGSLKFLNLLSTEWDENGNEISRME | -1.28
HMLGYGEQEREAQKYLEMHTAFQADPSLQKMYLPENQYALISKVMEMTGIKNVKSYLTPPNEL | -0.236
HMLHVRSALMSELDGIEGIGEKRKRLLFDAFITRDAIAAATLEQLMAVKGMNRPSAEAVHKHFHG | 0.203
HMLIELKIPSEWAGKSLHTLNLRQNYNVNVIGFRDEKSGKLNTHFDPSKKLPDEGIILVVADNRTLEKF | -0.451
HMLIIDLPDFTNKKLSELQQWADANQITLKIVEKDVSSKPYDTILEQTPAKNKYEKIVKGSTMTVTVNIK | -0.272
HMLINFPNKLKRLRLANNLTQQELANILETTKQAVSSYESGKSTPSLNSLIKLSEHFNISLDSLVFD | -0.446
HMLINIKTNSAVNVRSGPGMGFEVVNTYPSGYILQAKEMQKDGGDNVWYKVKDGWLSANYTIDI | 0.394
HMLINPLDILRNFNLSLYDDSRDSASNKEIDEIFESIKTNNSHIFSTLKAYRIPLPIASLIIKKIIKITLE | -0.882
HMLISDENMLRDLVQAVLDENPKSVSDYKSGKTKAFGFLVGQTMKAVKGQADPMLVNKILTELLN | -0.0698
HMLISYRVDALANEAGLSVDTIRYYQKLGILDPPKRTGRHSEYSPDHLERLIEIRRLADAGLTLSQISEI | -2.33
HMLKAKKIPVSDLEKFKGIVAEDVVSKAKALILPRGSNLSWLSNVAKKNLIAKLKAEGIEYISVYSS | 0.0669
HMLKDGPIGAYADSVIRDIIEKMERFSKEHINVDMLKIHEKIMLIDEPIIRMALLDEFHRVSHDN | -1.2
HMLKEKETRALANFTNKFFGLDISEDLKPIALSELSKFKKTHKISNLEEFINSFQYDFQNEKILSLLDIFL | -0.879
HMLKFPIGTHVGKKKPSANLSLPNKHGVVIGHGERRNAKGAIMRFYIVETTHSSRPEEWAPGITYPL | -0.275
HMLKHEEIQEYIKEQINSGTWKPKAKLPSLRDMSELFSTSIGTVLTAYSALEKKHIIYSIPRSGYYVLG | -0.334
